Data published in article PMC7116857.

Target: wild-type alpha-synuclein (UniProt P37840)
Assay: microfluidic free-flow electrophoresis

Substance “wild-type alpha-synuclein (from UniProt P37840 1-140) (natural protein)” has an oligomer concentration (aptamer-bound, 1:1 assumed) of under 80 nM.
